How the values were obtained:
[1] = target: T1, GM^CBM21 (Oryctolagus cuniculus, UniProt Q00756); assay: ITC; assay type: binding
T1 sequence (Q00756 102-237): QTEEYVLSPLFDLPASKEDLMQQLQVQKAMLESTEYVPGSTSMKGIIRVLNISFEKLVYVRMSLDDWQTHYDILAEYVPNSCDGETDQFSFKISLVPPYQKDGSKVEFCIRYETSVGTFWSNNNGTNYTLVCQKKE

[2] = target: T2, His6-tagged PP1α_(7–330) (UniProt P62136 7-330); assay: ITC
[3] = target: His6-tagged PP1β_(6–327) (UniProt P62140 6-327); assay: ITC
[4] = target: His6-tagged PP1γ_(7–323) (UniProt P36873 7-323); assay: ITC
Sequence of His6-tagged PP1γ_(7–323) (P36873 7-323): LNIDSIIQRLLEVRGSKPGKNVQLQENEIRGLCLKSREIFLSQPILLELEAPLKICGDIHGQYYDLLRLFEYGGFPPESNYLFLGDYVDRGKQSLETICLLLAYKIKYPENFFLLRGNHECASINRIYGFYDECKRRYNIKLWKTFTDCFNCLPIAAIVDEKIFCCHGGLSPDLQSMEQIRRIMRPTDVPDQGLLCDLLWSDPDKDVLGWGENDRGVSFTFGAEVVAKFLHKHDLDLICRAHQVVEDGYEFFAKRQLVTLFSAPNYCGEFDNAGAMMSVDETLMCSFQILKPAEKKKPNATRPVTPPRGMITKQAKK

[5] = target: His6-tagged PP1γ_(7–308) (UniProt P36873 7-308); assay: ITC
Sequence of His6-tagged PP1γ_(7–308) (P36873 7-308): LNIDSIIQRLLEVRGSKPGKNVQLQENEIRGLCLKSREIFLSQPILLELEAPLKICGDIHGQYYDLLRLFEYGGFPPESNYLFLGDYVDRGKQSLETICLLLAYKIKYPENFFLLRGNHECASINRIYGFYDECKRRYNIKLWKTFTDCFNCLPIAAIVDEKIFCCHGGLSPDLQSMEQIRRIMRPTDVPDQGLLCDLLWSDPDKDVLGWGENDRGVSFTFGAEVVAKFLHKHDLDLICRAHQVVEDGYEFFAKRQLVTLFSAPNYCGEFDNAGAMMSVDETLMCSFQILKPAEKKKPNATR

[6] = target: His6-tagged PP1α_(7–300) (UniProt P62136 7-300); assay: ITC
Sequence of His6-tagged PP1α_(7–300) (P62136 7-300): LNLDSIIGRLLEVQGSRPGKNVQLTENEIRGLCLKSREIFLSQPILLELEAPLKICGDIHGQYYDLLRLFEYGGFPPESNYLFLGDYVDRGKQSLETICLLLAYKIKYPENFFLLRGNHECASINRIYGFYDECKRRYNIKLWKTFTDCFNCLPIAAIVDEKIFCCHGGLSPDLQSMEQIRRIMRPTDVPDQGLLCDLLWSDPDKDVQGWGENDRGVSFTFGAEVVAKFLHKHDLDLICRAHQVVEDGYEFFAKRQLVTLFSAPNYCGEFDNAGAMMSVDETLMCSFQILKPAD

[7] = target: T2, His6-tagged PP1α_(7–330); assay: SPR
[8] = target: PP1α_(7–300) (as crystallised with GM^64–93 and microcystin-LR) (UniProt P62136 7-300); assay: crystal structure
Sequence of PP1α_(7–300) (as crystallised with GM^64–93 and microcystin-LR) (P62136 7-300): as above

T2 sequence (P62136 7-330): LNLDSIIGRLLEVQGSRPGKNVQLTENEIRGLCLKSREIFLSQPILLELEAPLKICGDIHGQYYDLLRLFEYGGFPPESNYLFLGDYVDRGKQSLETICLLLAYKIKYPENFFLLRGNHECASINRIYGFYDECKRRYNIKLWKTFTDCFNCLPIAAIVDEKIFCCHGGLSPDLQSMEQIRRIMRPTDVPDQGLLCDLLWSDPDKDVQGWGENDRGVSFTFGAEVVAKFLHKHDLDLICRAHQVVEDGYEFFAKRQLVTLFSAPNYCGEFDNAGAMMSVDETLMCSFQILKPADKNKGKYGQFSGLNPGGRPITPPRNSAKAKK
Sequence of His6-tagged PP1β_(6–327) (P62140 6-327): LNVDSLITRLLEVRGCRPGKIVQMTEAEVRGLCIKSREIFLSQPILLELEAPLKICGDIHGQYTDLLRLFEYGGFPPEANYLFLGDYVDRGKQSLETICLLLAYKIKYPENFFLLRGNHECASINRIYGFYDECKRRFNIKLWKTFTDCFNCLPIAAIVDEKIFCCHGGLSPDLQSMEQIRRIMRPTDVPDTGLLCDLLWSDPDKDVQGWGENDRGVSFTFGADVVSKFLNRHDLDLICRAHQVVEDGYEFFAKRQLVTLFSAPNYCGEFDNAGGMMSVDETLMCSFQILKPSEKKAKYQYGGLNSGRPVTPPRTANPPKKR

OC[C@H]1O[C@@H]2O[C@H]3[C@H](O)[C@@H](O)[C@@H](O[C@H]4[C@H](O)[C@@H](O)[C@@H](O[C@H]5[C@H](O)[C@@H](O)[C@@H](O[C@H]6[C@H](O)[C@@H](O)[C@@H](O[C@H]7[C@H](O)[C@@H](O)[C@@H](O[C@H]1[C@H](O)[C@H]2O)O[C@@H]7CO)O[C@@H]6CO)O[C@@H]5CO)O[C@@H]4CO)O[C@@H]3CO [α-CD]
Kd [1]: 27600 nM

OC[C@H]1O[C@@H]2O[C@H]3[C@H](O)[C@@H](O)[C@@H](O[C@H]4[C@H](O)[C@@H](O)[C@@H](O[C@H]5[C@H](O)[C@@H](O)[C@@H](O[C@H]6[C@H](O)[C@@H](O)[C@@H](O[C@H]7[C@H](O)[C@@H](O)[C@@H](O[C@H]8[C@H](O)[C@@H](O)[C@@H](O[C@H]1[C@H](O)[C@H]2O)O[C@@H]8CO)O[C@@H]7CO)O[C@@H]6CO)O[C@@H]5CO)O[C@@H]4CO)O[C@@H]3CO [β-CD]
Kd [1]: 8200 ± 100 nM

B1: GM^2–237 (muscle glycogen-targeting subunit of PP1, PPP1R3A, residues 2 to 237) (domain or fragment)
chain: EPSEVPGQNSKDNFLEVPNLSDSLCEDEEVKAIFKPGFSPQPSRRGSESSEEVYVHTASSGGRRVSFADNFGFNLVSVKEFDTWELPSVSTTFELGKDAFQTEEYVLSPLFDLPASKEDLMQQLQVQKAMLESTEYVPGSTSMKGIIRVLNISFEKLVYVRMSLDDWQTHYDILAEYVPNSCDGETDQFSFKISLVPPYQKDGSKVEFCIRYETSVGTFWSNNNGTNYTLVCQKKE
Kd [2]: 26.5 ± 2.3 nM
dH [2]: -20.2 ± 1 kcal/mol

B2: GM^64–237 (domain or fragment)
chain: RRVSFADNFGFNLVSVKEFDTWELPSVSTTFELGKDAFQTEEYVLSPLFDLPASKEDLMQQLQVQKAMLESTEYVPGSTSMKGIIRVLNISFEKLVYVRMSLDDWQTHYDILAEYVPNSCDGETDQFSFKISLVPPYQKDGSKVEFCIRYETSVGTFWSNNNGTNYTLVCQKKE
Kd [3]: 17.3 ± 4 nM
dH [3]: -15.4 ± 0.8 kcal/mol
Kd [4]: 21.4 ± 11.6 nM
dH [4]: -22.6 ± 0.1 kcal/mol
Kd [5]: 55.7 ± 5.1 nM
dH [5]: -13.3 ± 5.2 kcal/mol
Kd [2]: 20.8 ± 2.4 nM
dH [2]: -34.5 ± 2.4 kcal/mol
Kd [6]: 51 ± 5.1 nM
dH [6]: -25.1 ± 0.9 kcal/mol

RRVSFADNFGFNLVSVKEFDTWELPSVSTTFELGKDAFQTEE [GM^64–105 peptide]
Kd [7]: 114 ± 4 nM

RRVSFADNFGFNLVSVKEFDTWELPSVSTT [GM^64–93 peptide]
binding result [8]: binds

From PMC6235537 (Science Advances, 2018)
